Results reported in publication PMC2927421, “Tyrosine-Phosphorylated Caveolin-1 Blocks Bacterial Uptake by Inducing Vav2-RhoA-Mediated Cytoskeletal Rearrangements” (PLoS Biology, 2010).
Where a chain is given by its changes, count along the chain named. Where two headings read alike, the source gives them in different places. Where no end group is shown, it is not given here. [ ]: non-standard residue; d: D form. pY = N[C@@H](Cc1ccc(OP(=O)(O)O)cc1)C(=O)O

Legend:
[1] = biological target: Phospholipase Cγ1 (PLCγ1) (UniProt P19174); experiment: biotin-peptide streptavidin pull-down from lysate; details: reference: non-phosphorylated peptide; sites Y14
Vav2 = Vav2 (UniProt P52735); experiment: biotin-peptide streptavidin pull-down from lysate; details: reference: non-phosphorylated peptide; sites Y14
RasA1 = biological target: T1, RasA1 (Homo sapiens)
T1 chain: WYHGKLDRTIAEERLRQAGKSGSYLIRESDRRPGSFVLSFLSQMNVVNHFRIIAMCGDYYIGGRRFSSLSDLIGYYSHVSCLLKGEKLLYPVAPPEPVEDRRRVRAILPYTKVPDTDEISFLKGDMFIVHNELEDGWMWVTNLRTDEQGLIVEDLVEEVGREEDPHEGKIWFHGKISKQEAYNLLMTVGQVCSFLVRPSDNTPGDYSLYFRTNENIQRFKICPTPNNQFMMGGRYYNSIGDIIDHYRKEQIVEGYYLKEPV

[2] = biological target: T2, SH2 domain of Abl2 (recombinant, on protein microarray) (human, UniProt P42684 173-263)
T2 chain: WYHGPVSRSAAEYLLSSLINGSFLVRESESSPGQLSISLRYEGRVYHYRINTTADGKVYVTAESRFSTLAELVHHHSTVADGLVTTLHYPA

[3] = biological target: T3, SH2 domain of Grb10 (recombinant, on protein microarray) (human, UniProt Q13322 493-574)
T3 chain: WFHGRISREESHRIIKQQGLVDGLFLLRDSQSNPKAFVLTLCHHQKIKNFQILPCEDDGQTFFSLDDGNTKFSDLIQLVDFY

[4] = biological target: T4, SH2 domain of Abl1 (recombinant, on protein microarray) (human, UniProt P00519 127-217)
T4 chain: T2 chain with S9N, L18G, L35R, T53A, A54S, V58L, T61S, A62S, S67N, V84I

[5] = biological target: T5, SH2 domain of SH2D3C (recombinant, on protein microarray) (human, UniProt Q8N5H7 220-319)
T5 chain: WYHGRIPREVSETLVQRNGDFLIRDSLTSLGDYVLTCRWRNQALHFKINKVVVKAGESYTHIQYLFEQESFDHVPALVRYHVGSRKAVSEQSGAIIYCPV

[6] = biological target: T6, SH2 domain of Phospholipase Cγ1 (recombinant, on protein microarray) (human); experiment: tandem NC SH2 domains
T6 chain: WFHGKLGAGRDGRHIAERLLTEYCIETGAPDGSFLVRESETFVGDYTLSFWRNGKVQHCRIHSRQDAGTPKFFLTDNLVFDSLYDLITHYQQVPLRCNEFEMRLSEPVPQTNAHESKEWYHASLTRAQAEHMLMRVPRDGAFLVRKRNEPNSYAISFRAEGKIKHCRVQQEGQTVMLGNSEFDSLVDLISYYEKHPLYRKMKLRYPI

[7] = biological target: T7, SH2 domain of Phospholipase Cγ1 (recombinant, on protein microarray) (human); experiment: peptide or protein array; recombinant human SH2 and PTB domains spotted on protein microarrays; probed in duplicate with eight concentrations of fluorescently labeled peptide, 10 nM to 5 µM; fluorescence fit to a saturation binding equation; details: both partners purified
T7 chain: T6 chain

[8] = biological target: T8, SH2 domain of the RhoA GEF Vav2 (recombinant, on protein microarray) (human, UniProt P52735 673-767); experiment: as above; details: both partners purified
T8 construct: Vav2, human, SH2 domain
T8 sequence (looked up): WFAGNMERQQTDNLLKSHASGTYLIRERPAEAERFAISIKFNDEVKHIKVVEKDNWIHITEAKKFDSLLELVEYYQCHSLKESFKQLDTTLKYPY

[9] = biological target: T9, SH2 domain of Abl2 (recombinant, on protein microarray) (human, UniProt P42684 173-263); experiment: as above; details: both partners purified
T9 construct: Abl2, human, SH2 domain
T9 sequence (looked up): T2 chain

[10] = biological target: T10, SH2 domain of SH2D3C (recombinant, on protein microarray) (human, UniProt Q8N5H7 220-319); experiment: as above; details: both partners purified
T10 construct: SH2D3C, human, SH2 domain
T10 sequence (looked up): T5 chain

[11] = biological target: T11, SH2 domain of Grb10 (recombinant, on protein microarray) (human, UniProt Q13322 493-574); experiment: as above; details: both partners purified
T11 construct: Grb10, human, SH2 domain
T11 sequence (looked up): T3 chain

[12] = biological target: T12, SH2 domain of Abl1 (recombinant, on protein microarray) (human, UniProt P00519 127-217); experiment: as above; details: both partners purified
T12 construct: Abl1, human, SH2 domain
T12 sequence (looked up): T2 chain with S9N, L18G, L35R, T53A, A54S, V58L, T61S, A62S, S67N, V84I

In the case of “caveolin-1 (Cav1) 7-21 (from UniProt Q03135) pTyr14 peptide”, the “binding against the reference” value [1] is reported as “stronger” and the “binding against the reference” value (Vav2) is reported as “stronger”.

With KYVDSEGHLYTVPIREQG (also: fluorescent label (position not given here)) [fluorescently labeled non-phosphorylated Cav1 peptide (residues 5-22 of Cav1)] the Kd (RasA1) was 1.39 µM.

B1: fluorescently labeled Tyr14-Cav1 phosphopeptide (residues 5-22 of Cav1, phosphorylated on Tyr14) (peptide, UniProt Q03135 5-22, looked up)
peptide: KYVDSEGHL[pY]TVPIREQG
modifications: also: fluorescent label (position not given here)
notes: caveolin-1 (Cav1), human, residues 5-22; also called Tyr14-Cav1 phosphopeptide (18 amino acids); source: synthetic peptide, purified to >95% by preparative reverse phase HPLC
For B1, the Kd [2] was 0.058 µM, the Kd [3] was 1.37 µM and the Kd [4] was 1.64 µM. The Kd [5] was 0.874 µM, the Kd [6] was 0.482 µM and the Kd [7] was < 2 µM. For the same molecule, the Kd [8] was 0.222 µM, the Kd [9] was < 2 µM and the Kd [10] was < 2 µM. The Kd [11] was < 2 µM and the Kd [12] was < 2 µM.
